Results reported in publication PMC12246119 (Nature Communications, 2025).

Columns and labels:
[1] = biological target: T1, Crm1 (human, UniProt O14980 1-1071); experiment: cryo-EM structure; purified RanBP2^RBD4/SUMO1^Q94P-RanGAP1/Ubc9 incubated with excess Crm1 and Ran^Q69L(GTP), gel filtration in 20 mM HEPES pH 7.4, 110 mM potassium acetate, 2 mM magnesium acetate, 1 mM TCEP; lightly crosslinked with 250 µM BS3; 0.1% CHAPSO; 9.7 mg/mL; conditions: both partners purified
T1 construct: Crm1 (exportin), human, full length, wild type; also called exportin Crm1; source: E. coli BL21(DE3) SoluBL21 with Codon Plus (RIL) plasmid, purified (Ni-NTA, Ulp1 cleavage, Superdex 200, MonoQ); not shown: His6, N-terminal, cleaved; Smt3, N-terminal, cleaved
T1 sequence (O14980 whole entry): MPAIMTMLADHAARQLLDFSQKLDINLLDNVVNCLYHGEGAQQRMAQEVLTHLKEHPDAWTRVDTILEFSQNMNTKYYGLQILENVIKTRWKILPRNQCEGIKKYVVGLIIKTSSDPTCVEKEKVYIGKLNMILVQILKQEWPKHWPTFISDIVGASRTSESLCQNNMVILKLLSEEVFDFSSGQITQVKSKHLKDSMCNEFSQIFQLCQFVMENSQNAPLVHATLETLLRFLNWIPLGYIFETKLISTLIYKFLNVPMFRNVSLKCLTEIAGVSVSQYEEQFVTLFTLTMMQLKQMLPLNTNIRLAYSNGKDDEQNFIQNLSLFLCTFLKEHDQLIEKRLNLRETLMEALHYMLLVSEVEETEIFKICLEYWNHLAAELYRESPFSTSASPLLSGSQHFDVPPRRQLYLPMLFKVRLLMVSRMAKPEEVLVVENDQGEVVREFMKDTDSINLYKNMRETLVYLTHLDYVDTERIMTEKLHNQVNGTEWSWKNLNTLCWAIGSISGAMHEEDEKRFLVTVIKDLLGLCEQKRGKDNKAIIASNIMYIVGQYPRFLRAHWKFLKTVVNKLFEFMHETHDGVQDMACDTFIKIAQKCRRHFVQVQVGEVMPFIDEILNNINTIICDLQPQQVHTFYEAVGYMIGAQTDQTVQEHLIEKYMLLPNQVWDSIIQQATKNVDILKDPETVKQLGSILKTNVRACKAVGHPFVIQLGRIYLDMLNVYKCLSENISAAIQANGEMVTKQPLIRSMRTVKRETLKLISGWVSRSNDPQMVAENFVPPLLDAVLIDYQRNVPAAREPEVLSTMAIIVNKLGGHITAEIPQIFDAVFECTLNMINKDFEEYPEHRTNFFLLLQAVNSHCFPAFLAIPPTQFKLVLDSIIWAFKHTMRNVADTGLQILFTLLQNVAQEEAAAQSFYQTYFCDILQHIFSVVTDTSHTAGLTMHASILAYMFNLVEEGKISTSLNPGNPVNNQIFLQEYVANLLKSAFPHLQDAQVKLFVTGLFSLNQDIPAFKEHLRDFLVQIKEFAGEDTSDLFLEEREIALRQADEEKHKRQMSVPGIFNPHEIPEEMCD

[2] = biological target: Ran^Q69L(GTP) (human, UniProt P62826 1-216, Q69L); experiment: as above; conditions: both partners purified

binding result [1]: binds | binding result [2]: binds
B1: RanBP2^2446-3060 (RanBP2^RBD4) (domain or fragment, human, UniProt P49792 2446-3060, looked up)
chain: DSLITPHVSRSSTPRESPCGKIAVAVLEETTRERTDVIQGDDVADATSEVEVSSTSETTPKAVVSPPKFVFGSESVKSIFSSEKSKPFAFGNSSATGSLFGFSFNAPLKSNNSETSSVAQSGSESKVEPKKCELSKNSDIEQSSDSKVKNLFASFPTEESSINYTFKTPEKAKEKKKPEDSPSDDDVLIVYELTPTAEQKALATKLKLPPTFFCYKNRPDYVSEEEEDDEDFETAVKKLNGKLYLDGSEKCRPLEENTADNEKECIIVWEKKPTVEEKAKADTLKLPPTFFCGVCSDTDEDNGNGEDFQSELQKVQEAQKSQTEEITSTTDSVYTGGTEVMVPSFCKSEEPDSITKSISSPSVSSETMDKPVDLSTRKEIDTDSTSQGESKIVSFGFGSSTGLSFADLASSNSGDFAFGSKDKNFQWANTGAAVFGTQSVGTQSAGKVGEDEDGSDEEVVHNEDIHFEPIVSLPEVEVKSGEEDEEILFKERAKLYRWDRDVSQWKERGVGDIKILWHTMKNYYRILMRRDQVFKVCANHVITKTMELKPLNVSNNALVWTASDYADGEAKVEQLAVRFKTKEVADCFKKTFEECQQNLMKLQKGHVSLAAELSK
notes: RanBP2 (Nup358), human, residues 2446-3060: FG1, IR1-M-IR2, FG2 and RBD4; also called RanBP2 FG1-IR1-M-IR2-FG2-RBD4 fragment; hRanBP2^RBD4; source: E. coli BL21(DE3) Codon Plus (RIL), purified (Ni-NTA, Superdex 200)
